# Source: patent CN114349850A (JIANG QINGHUA; WANG PINGPING; STEP HIGH; ZHAO DONGMING, dated 2022)
# B1: GD1-69 (antibody, human IgG1, kappa, V domains shown)
# VH: EVQLLESGGGLVQPGGSLRLSCAASGFTFSNYAMSWVRQAPGKGLEWVSVIYSGVSSTYYEDSVKGRFTISRDNSKNTLYLQMNSLRAEDTAVYYCAKDPSYDTRGYIFDYWGQGTLVTVSS
# VL: DIVMTQSPATLSVSPGERATLSCRASQSVSTNLAWYQQKPGQAPRLLIYGTSTRATGVPARFSGSGSGTEFTLTISSLQSEDFAIYYCLQYNNWRTFGQGTKLEIKR
# notes: also called 目标抗体; GD1-69抗体
# How the values were obtained:
# SARS-CoV-2 Spike蛋白 = SARS-CoV-2 Spike蛋白 (SARS-CoV-2, UniProt P0DTC2 16-1213); experiment: cell-based or functional assay
# SARS-CoV-2 Spike RBD区域蛋白 = SARS-CoV-2 Spike RBD区域蛋白 (SARS-CoV-2, UniProt P0DTC2 319-541); experiment: competitive ELISA, GD1-69 against ACE2 for SARS-CoV-2 S protein / RBD
binder,measurement,setting,value
B1,"噬斑减少中和测试 (活SARS-CoV-2病毒, Vero E6细胞) IC50",SARS-CoV-2 Spike蛋白,0.44 µg/mL
same,基于假病毒的中和试验 IC50,SARS-CoV-2 Spike蛋白,1.77 µg/mL
same,IC50,SARS-CoV-2 Spike RBD区域蛋白,0.26 µg/mL
